Measured values from patent US20240108688A1, “Inhibitors of the tissue factor-protease activated receptor 2 (TF-PAR2) signaling pathway for use in the treatment or prevention of heart failure (HF) and associated or resulting diseases” (priority 2020, published 2024).

B1: NAPc2: single-chain, non-glycosylated 85 amino acid protein, 9732 Da; blocks TF signaling and coagulation via inhibited TF-FVIIa-FX(a) complex (protein, listed as Ancylostoma caninum)
chain: KATMQCGENEKYDSCGSKECDKKCKYDGVEEEDDEEPNVPCLVRVCHQDCVCEEGFYRNKDDKCVSAEDCELDNMDFIYPGTRN

Key:
[1] = tested on: permanent LAD ligation mouse model of MI
Description: B), High-frequency ultrasound echocardiography obtained in parasternal long axis (PLAX) with measurement of left ventricular ejection fraction (LVEF, %) and left ventricular end diastolic volume (LVEDV, μl) on day 7 after operation. […] Ordinary one-way ANOVA, Sidak's multiple comparison test, n=4-7 animals per group.
C), Experimental design: Mice were injected with NAPc2 (1 mg/kg/d) once daily by i.p. injection from day 1 through day 7. D), High-frequency echocardiography obtained in parasternal long axis (PLAX) with measurement of LVEF, LVEDV on day 7 after LAD ligation. E), Representative blots for protein expression analysis of pERK1/2, NOX2, TGF-β1 and α-SMA in infarcted myocardium obtained from vehicle or NAPc2 treated mice. F-H, Mice were injected with NAPc2 (1 mg/kg/d) and/or vehicle (1 mg/kg/d) once daily by i.p. injection from day 1 through day 7 followed by longitudinal analysis. […] Echocardiographic studies over 4 weeks from day 7 for LVEF (%), LVEDV (p1) in PLAX M-mode; two-way ANOVA, Bonferroni's multiple comparisons test, n=6-12 animals per each group (G). Kaplan-Meier survival analysis of LAD ligated versus sham operated NAPc2 876 and vehicle treated mice after 4 weeks. Log-rank (Mantel-Cox) test, n=7-15 animals per group (H).

human monocytes = assay: Isolated human monocytes exposed to hypoxia (OGD) plus inflammatory cytokine cocktail, western blot; format: cell-based; details: NAPc2 200 ng/ml; cytokine cocktail 20 ng/ml plus hypoxia
From the text: Representative blots and quantification. […] Representative images and quantification of replicates.
Monocytes isolation and in vitro culture: Bone marrow derived cell suspensions were isolated by flushing femurs and tibias of 8-12 weeks old mice. Cell aggregates were removed by gentle pipetting and the cell lysates were passed through a 70 μm nylon strainer to remove the cell debris. Furthermore, to enrich monocytes population, mouse monocyte isolation Kit ([…] Technologies Inc., Vancouver, BC, Canada) was used according to standard protocols provided by the manufacturer. To mimic in vivo ischemic conditions, a protocol of oxygen-glucose-deprivation (OGD) is applied along with the cytokine cocktail mix (IL-6, TNF-α and MCP-1) at concentrations of 20 ng/ml for 4 hours followed by the protein expression analysis of pERK1/2, NOX2 and TGF-β1 on isolated monocytes. […] For blocking TF-FVIIa signaling on human monocytes, isolated monocytes from healthy individuals were treated with NAPc2 in the presence of OGD along with the cytokine cocktail mix followed by the protein expression analysis of pERK1/2, NOX2 and TGF-β1.

[2] = prevention of venous thromboembolism, total knee replacement patients (ref 27); cited from earlier work
[3] = human, in vivo; cited from earlier work
[4] = NAPc2 1 mg/kg/d i.p. day 1-7, western blot
[5] = NAPc2 1 mg/kg/d i.p. starting 1 day after MI, 7 d after LAD ligation

Row | Molecule | cardiac function in sham-operated mice ([1]; trametinib 1 mg/kg/d oral, sham surgery) | cardiac function (LVEF, LVEDV by echocardiography) ([1]; NAPc2 1 mg/kg/d i.p. day 1-7, day 7 after LAD ligation) | cardiac infiltration of CD11b+ myeloid cells ([1]; NAPc2 1 mg/kg/d i.p. day 1-7, flow cytometry of infarcted myocardium) | ERK1/2 phosphorylation in the infarcted heart [1, 4] | NOX2 expression in the infarcted heart [1, 4] | TGF-β1 activation in the infarcted heart [1, 4] | up-regulation of the downstream target α-SMA in the infarcted heart [1, 4] | levels of NOX2 in circulating myeloid cells (PBMCs) [1, 5] | levels of active TGF-β1 in circulating myeloid cells (PBMCs) [1, 5] | cardiac fibrosis (fibrotic areas normalized to surface area) ([1]; short term NAPc2 1 mg/kg/d i.p. from 1 d until 7 d post MI, longitudinal analysis, compared to vehicle) | survival (Kaplan-Meier, 4 weeks) ([1]; short term NAPc2 1 mg/kg/d i.p. from 1 d until 7 d post MI, LAD ligated mice) | cardiac function in chronic MI (LVEF, LVEDV over 4 weeks) ([1]; short term NAPc2 1 mg/kg/d i.p. from 1 d until 7 d post MI, compared to vehicle) | ERK1/2 phosphorylation (human monocytes) | NOX2 expression (human monocytes) | TGF-β1 activation (human monocytes) | antithrombotic effect [2] | safety [3]
1 | CC(=O)Nc1cccc(-n2c(=O)n(C3CC3)c(=O)c3c(Nc4ccc(I)cc4F)n(C)c(=O)c(C)c32)c1 [trametinib, reference compound] | no significant effects | – | – | – | – | – | – | – | – | – | – | – | – | – | – | – | –
2 | B1 | – | improved cardiac function | attenuated | diminished | diminished | diminished | diminished | attenuated | attenuated | significantly reduced | improved survival | improved cardiac function | reduced | suppressed | suppressed | has been demonstrated | documented safety
